assay: soluble on expression in E. coli; label from the status in PepcDB or PDB records

| Sequence | soluble on expression in E. coli |
| --- | --- |
| MERVAPNGQFKDVGVDQLFFSTTDAQGRIQETNNTFVELSRYTEEELRNAAHNIIRHPFMPGGVFKIMWDKLQRGETFAGYVRNLAHSGETYDVFATVTPIPGTHDYLSVRQRPCHDDHRALAMTIYAEVGDYEAQLRKDGMSAREAAEAGAGLIGDKLRESGFDNFDAYAHAMLPWEVFCRENMSTGLPQREVAGDLGTELAQAHDVHDHLDEWMLRLDELLTTAQQLGEAREELVDSLGQTSSLGDTIDARSASETLQIVQFQLNVWKGMQKIVDSYVVELAELITTLANDTLRERFQISVSRLHTAMLATFLAELIDGTSATANTEHKVALLKATMRDSLEAIDRGAFHRAQLVRSTISCIRTVTSLMESPRSLLTEAIREAQSLNNDELSAAIATELERSERAANNMHQLVATLESTATTPDIAAMLAEL | not soluble |
| MERYAAALEEVADGARQQERHYQLLSALQSLVKELPSSFQQRLSYTTLSDLALALLDGTVFEIVQGLLEIQHLTEKSLYNQRLRLQNEHRVLRQALRQKHQEAQQACRPHNLPVVQAAQQRELEAVEHRIREEQRAMDQKIILELDRKVADQQSTLEKAGVAGFYVTTNPQELMLQMNLLELIRKLQQRGCRAGNAALGLGGPWQSPAAQCDQKGSPVPP | soluble |
| MESIKVVIVGGGQAGIAMGYYLVKEKVPFMILDANEQVGDSWRNRYDSLVLFTPRTYSQLPGFPMDGAPNGFPTKDEMASYLQQYANHFNLPMRHHTKVDRVTRQQNGRFHLKTTNGWIEAEKVVIATGAFQKPYLPPVLDSANNEMSQVHSSAYRNPAQIPGKSVLVVGGGNSGAQIAVELAKERNVTMAISHPFRFLPLKLLNKSMFSWLEWGGLLYAGIDTTRGRWFKKQKDPIFGKELKSLIKKGQIHLKPRVMNVQGKEVEFADHSRLSFDRIIWSTGFSPSYEWIDIDGVIATNGWPIHNRGITNIRGLYFLGLPWQYQRGSALVCGVGRDAEYLVPFIKHGDK | not soluble |
| MESLQNHFLIAMPSLDDTFFERTVIYLCEHDEKGAMGLVINKPLGIEVNSLLEQMDLPTEQVSADLAMGSQVLMGGPVSQDRGFVLHTSQPYWANSTELGSGLMLTTSRDVLTAIGSKRSPDKFLVALGYAGWSKNQLEQELADNSWLTIPADHALLFDINHEDRWQQASRSLGFEAWQLSTQAGHALEHHHHHH | soluble |
| MESSIKVGISSCVLGERVRFDSGHKVSNFVTKELSNYFDFVSVCPEVGVGMPVPRPTIRLISNEERIALVETKNPDNDHTDNMLTYSANKVDELQNEQLCGYIVCAKSPTCGMERVKVYSKNNAAKEGVGLYTKTLMEKMPWLPVEEDGRLNDPVLKENFITRIYCLNDFYESMAGEPTRGKIIDFHSRYKLTLMAHHPESYRSLGRLVADVASYEIDEFYREYRLGLMTALSNRASRKNNTNVLMHLQGYFKRSLNKDEKEELATVIQDYRTGTLPLLAPLTLIKHYLNAYPDEYLQRQKFLEPHPQEMRLRYGL | not soluble |
| MESVAAESAPAPENEHSQETPESNSSVYTTFMKSHRCYDLIPTSSKLVVFDTSLQVKKAFFALVTNGVRAAPLWDSKKQSFVGMLTITDFINILHRYYKSALVQIYELEEHKIETWREVYLQDSFKPLVCISPNASLFDAVSSLIRNKIHRLPVIDPESGNTLYILTHKRILKFLKLFITEFPKPEFMSKSLEELQIGTYANIAMVRTTTPVYVALGIFVQHRVSALPVVDEKGRVVDIYSKFDVINLAAEKTYNNLDVSVTKALQHRSHYFEGVLKCYLHETLEAIINRLVEAEVHRLVVVDEHDVVKGIVSLSDILQALVLTGGEKKP | soluble |
| METAWSNILNYKNVSDRYILTEKDKKGAFTRQYFEVYEARLKELKPRILENAEREIGKGKFTHSQLSDAKQDEEIFVVGVIVKRIAARPSILKSLLNEDKVAYDDYEEDAEEDEVKRYAGSIEDRIELESDKQTVRLEGNISMDECATGCCVGVLGKLGKEGVFHVNRLVWPSVKVPKKVAVDGTIAFVSGLDLTGDLEDDRLTISGLEFMADWMNVQVGNENQCPPIDRLVVIGPLVETKSNGCDVQSVVRTLTLSRAEKHSSTASLITVDKIINSIAEKPLVNTVDVTPGVGDPCSSMWPLPPIHRVCLPRCGMSDKKVNLVTNPYEFEVNGLRVMTMSGENVSELLRTSLKWTGADAIENIIKWQHVAPNCPDTLDAFPVAERDPLIMDITPHVIICGNQPHAEFRHIPIDGSNCLVVCLPKFSKTRVACFLNLSDLSLKWQNFDHQF | not soluble |
| METDPDYSMVLLTENFPPYNMAINGKNFAQEDNIDGIAVDIVREMFKRAGIKYSLTLRFPWDRIYKLALEKPGYGVFVTARLAEREDKFKWVGPIGPDDWVLLAKGDSPITLGSLDEAKKYRIGAYKGDAIAEFLGKNGFEADLALRDQENAQKLVKGQIDLWASGDPAGRYLAKQEGVTGLKTVLRFNSDQLYLALNRETPDEVVQKLQAALDGMRKEGFVEDILNSYLLEHHHHHH | soluble |
| METEICEQLGDLHLDKEAILLRAEQIEQDIKARKYSVIPPLSDEEQNLLDAEIAKRAAPPPGVPDAADFPLHDIVKELGLDKPVDGTDPEFYEELKAKDANTVYKNMKDVPDSIAAKYLPDLARRFVEFERRVKRVERMLWALPREDRSLEEDRFEILTELLDKSCQGLEIWEEHCERKIPLGHRCVLEGELIHLITSKFDLIDKICGEFDKLKNKRSEVNDERDMLRYEIRHCDMIFTEIHEKFLKSYLEMDW | not soluble |
| METEIPVNEKETSFRRRVYTTIETLIDIENTDQLQEHLPHLHCLGWDEVVEERYVNKQCGFPSCQKAPPKITRNQMFEIDRKEGKIFEFRKQRAKFCSEMCYQKSSFVRKQLDEHPLWITGLTEARTQKVYEVPDESFVSPIAEKSEPVDSQFKKEPSIWLVTDSIIAKVQDMKLSEEAEEPKSLDPEDQDIEPFKLTDDDKDFIKSIKEFRNSNFGPPSTSKLLKTAPKPVLSAKDRKKEDEVLAKLRAKYGNKNALQKKPPILIEAQEIHSKLKTMEKAKEAWLVDLIKSWFTPETRKLVREGARPTGGAAEQILMDFLSGKKVDAEKLVNLPNLDKYNVKEKRLNIFLHSIRNHWMDLEARLHLTPTRRDILSRVASTFQLDSENITGWTKREINSIVIALFIVICLVDVELGDDYFKKDNASPELTAISNELCGLDSFQITGLHAAIKSQC | not soluble |
| METHLGWARSLEAVLSDRSALDAFQEWLIEYSSPQYLDLFFAIRAYERMALEGKPEKSQLSKSIYSKFLSSRTGNCEAIPKHFRAPIGEKLRHGTELEDRVFSHCSNFVQEFLRRQHEEFVGSEEFIEAFNKMSSTTADQLPGGSAHHSSHQNTMRRSSGTTSRKSAAQIATQLTAEALLKSKHDRHSKLGETKLEKMYPPTRQPYVCNATTSHNDSAVSSTFSGDTPEAHRMHSNRLRHIRDEQARENHGTMTLPRVEKASVDGQQWDHSSESGRRNFAMEITRKLLRHIDKVKLNDEMEKRIDDIEECRYTTIDMVNGTEPNDDLGKIDEDEELDDYLKMKMTDDSQKGSTNRSPKGPAGEPNKSGEGSKNTTLSPTNRAPAQLHNTIRVPRRKDYPRDTSASLKSHRHHQIDTNRMMSQSMCAPSYSSASSSYSRDSFAPAPTTRVNFAPGSSKSSQFYDSSGIGSMAPSAFSATSSLDYKDRRQHRKAPTPKKHSKIGKNLSNLITISYLGTDKIPVVTHVPNDGPMTLAEFKRHFALPNGAHQLFFKTECEDGSAPFQLLLIKDEHHLLPVFEGRIAAELR | not soluble |
| METNMTFVLKEFDALKSHFNDTVKIILQREKKDKIEDLPNPRKEELQFLTAVLNQLEAKIDELKPRSLASYVHVFYGAMLLVCKDVENNLRVMEKKENSLLFTRLMDGMGISDENIPTSEQNIMFYRGLNKFLNFIYESNDSRKGLKKEHFLQVLSLKKIYSLAKLSYEQEEAAENNALAKLTADGKTKANANSFHVEKPIDSSIVEQFKSWDEMKGALHQLILDELSDKNVAKISALSQARSAQLKFLQTMAEQLDKIPNQSLEPSEKMAILAGAMYIVRGQIAQEYGKDPLSNDKISATVIHTGLSTILHANADCCEDKEVLIAAANKFIRHMVIERPEQSNKKITKESVRENNMFSDIAGFQLISVLTLIQNMIKTCRTDAIEACVTKRKEELEALKPKKEGYSIASSVTGYVGSWFKKAPSMSEEDEEDDLKDQNTAEETSKPTV | not soluble |
| METPLVSIVSICWNRKDEICESLNNIRKIDYESLEIIVVDNGSTDGTVEKIEEDFKEVKLIKMPKNAGIEAYNVGFKSAAGEYIVILDDDSFPEKNSIKRMVKKFQKDDKLGMVAFDVRNYYNYDEVKKIDTEETSNDTAAESDEYIMAFNGAGAGVRTEVLKKAGFYPEEFFLYWNEQDTAFRILDMGYKIKFFADVIAYHKYSPKNRASWRAPFYYTRNAFFLVWKNYSTKAALKKTIELIYDCFYYSMEQKTNIYLKAMWNAFMNFNKIKGKRKVVDKYIEENLRIPLNVSFTFYKLEHHHHHH | not soluble |
| METQLSVQLGLDSLLTDFGLESVMNKQQQLFANMGLSDIGAPTPSTAIPVPNAHLHPSMVAGSDPSNPVVGFGFGSPSSTTSSSPPLSNSPTIEQQQHAQLTAMMQGIMSNNNVAVSNGSGVQVASVPAVHCSGCKSNETATSFCQDCNANLCDNCTMAHKFMHCFADHRVVSLTTPGTGSSSSSTSSSSSASSTSSHQVPSLGGKQSPDSMMLGSGKRSVLCLQHRASELVFFCVSCNLAICRDCTVSDHPSGTHQYELIADVADKQMLKMEQLIADARSKHADMLDMFKQVDNKQQVLTASLHNAHAQLEETVSNLINVIQDQKKTLAKDIDNAFAAKQIQLTMVDKRIQSMADKLSQTIEFSRRLMSFASPAEVMVFKQLLDTRLQLFLGFNPDTSGVLMTPCEIEYLGAAGLFNNSASTVSQLLGSVHGGSPINNAPAANDFLMPQAGLAPIGRAQSRIIPIEQNQLARSPPHHIAGSLPMNAYSDSNLLRPNKDFGGSSQSLGPFNPLGASVPGAAADPFSSQYDKWSLGVEPSVGGLLEGGNVDEEKFQTLFPPSRSQIKRQKMIYHCKFGEFGVMEGQFTEPSGVAVNGQGDIVVADTNNHRIQVFDKEGRFKFQFGECGKRDGQLLYPNRVAVNRTTGDFVVTERSPTHQIQVYNQYGQFLRKFGANILQHPRGVCVDSKGRIIVVECKVMRVIIFDMFGNILQKFSCSRYLEFPNGVCTNDKNEILISDNRAHCIKVFSYEGQYLRQIGGEGVTNYPIGVGINSLGEVVVADNHNNFNLTVFSQDGTMIGALESRVKHAQCFDVALVDDGSVVLASKDYRLYLYRFLPATSGQSTSSASSQI | not soluble |
| METSNFVKQLSSNNRKTRVNALEALKKYLTAKQFKENKQIEFNKLWKGLYYAMWFSDRPRPQQRLANELGELHGLYFDPKDNSTADELTTNDKAFIKFSRGFWKVMCFEWFNIDRYRLDKYLLLIRRVLFSQLKYLQSRNWDKKLVDEYIKKVLRWLPLSGSPKVYTGIPIHIVDILLDEWERLLKDGDEDDEDEENKEEEMRKIAESAKKTPLADVIAIFQDIVADYNNSKVLREKIKEDLFSDTRLVSWDILEGETQHNDSSNESEEEEEEEWKGF | not soluble |
| METTIFQFQKTFFTKPPKERVFVLHGEEQYLIRTFLSKLKEKYGENYTVLWGDEISEEEFYTALSETSIFGGSKEKAVVIYNFGDFLKKLGRKKKEKERLIKVLRNVKSNYVFIVYDAKLQKQELSSEPLKSVASFGGIVVANRLSKERIKQLVLKKFKEKGINVENDALEYLLQLTGYNLMELKLEVEKLIDYASEKKILTLDEVKRVAFSVSENVNVFEFVDLLLLKDYEKALKVLDSLISFGIHPLQIMKILSSYALKLYTLKRLEEKGEDLNKAMESVGIKNNFLKMKFKSYLKANSKEDLKNLILSLQRIDAFSKLYFQDTVQLLRDFLTSRLEREVVKNTSHGG | soluble |

Reference: the DeepSol protein solubility set
